Reference: patent US20240165282A1, “CONFORMATIONAL CONSTRAINED SOMATOSTATIN RECEPTOR 3 PEPTIDE LIGANDS AND THEIR CONJUGATES AND USES THEREOF” (STARGET PHARMA LTD., priority 2021, published 2024)
*1 amine or outer side, *2 acyl side, *3 side chain or, on linkers, in order; H or OH if unused. Bridges are numbered along the chain shown (N, C = ends). [ ]: non-standard residue; d: D form. The star is where a group is joined. DOTA = O=C(O)CN1CCN(CC(=O)O)CCN(CC(=O)*)CCN(CC(=O)O)CC1; N(2-mercaptoethyl)Gly = O=C(CN(CCS[*:3])[*:1])[*:2]

Experiments:
Experiment in all cases: cell-based or functional assay
(CR)L-RAMP1 (human) = (CR)L-RAMP1 (human) (UniProt Q16602)
(CR)L-RAMP2 (human) = (CR)L-RAMP2 (human) (UniProt Q16602)
ADCYAP1R1 (human) = ADCYAP1R1 (human) (UniProt P41586)
AGTRL1 (human) = AGTRL1 (human) (UniProt P35414)
AVPR1B (human) = AVPR1B (human) (UniProt P47901)
AVPR2 (human) = AVPR2 (human) (UniProt P30518)
C3AR1 (human) = C3AR1 (human) (UniProt Q16581)
C5L2 (human) = C5L2 (human) (UniProt Q9P296)
CALCR (CR) (human) = CALCR (CR) (human) (UniProt P30988)
CCR10 (human) = CCR10 (human) (UniProt P46092)
CCR10 (human), sequence (P46092 whole entry): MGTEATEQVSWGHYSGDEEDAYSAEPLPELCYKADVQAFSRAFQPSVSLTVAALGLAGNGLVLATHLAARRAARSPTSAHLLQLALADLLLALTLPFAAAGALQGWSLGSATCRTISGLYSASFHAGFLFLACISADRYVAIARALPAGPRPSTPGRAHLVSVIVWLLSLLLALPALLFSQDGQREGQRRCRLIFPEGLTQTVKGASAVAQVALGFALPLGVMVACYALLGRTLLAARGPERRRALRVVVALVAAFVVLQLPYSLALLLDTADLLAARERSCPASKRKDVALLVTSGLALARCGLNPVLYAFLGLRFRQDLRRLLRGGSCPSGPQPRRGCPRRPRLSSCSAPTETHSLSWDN

CHRM1 (human) = CHRM1 (human) (UniProt P11229)
CHRM5 (human) = CHRM5 (human) (UniProt P08912)
CNR1 (human) = CNR1 (human) (UniProt P21554)
CRHR1 (human) = CRHR1 (human) (UniProt P34998)
CX3CR1 (human) = CX3CR1 (human) (UniProt P49238)
CX3CR1 (human), sequence (P49238 whole entry): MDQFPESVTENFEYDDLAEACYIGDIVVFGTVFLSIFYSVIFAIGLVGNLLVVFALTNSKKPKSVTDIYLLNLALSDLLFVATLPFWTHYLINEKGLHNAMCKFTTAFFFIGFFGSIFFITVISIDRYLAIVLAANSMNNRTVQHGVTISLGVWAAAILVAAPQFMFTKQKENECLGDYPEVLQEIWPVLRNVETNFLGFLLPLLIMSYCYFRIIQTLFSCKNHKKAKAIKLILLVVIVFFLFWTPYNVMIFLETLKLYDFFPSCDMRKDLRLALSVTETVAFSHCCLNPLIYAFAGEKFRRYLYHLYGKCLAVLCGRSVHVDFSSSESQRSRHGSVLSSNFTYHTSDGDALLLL

CXCR2 (human) = CXCR2 (human) (UniProt P25025)
CXCR2 (human), sequence (P25025 whole entry): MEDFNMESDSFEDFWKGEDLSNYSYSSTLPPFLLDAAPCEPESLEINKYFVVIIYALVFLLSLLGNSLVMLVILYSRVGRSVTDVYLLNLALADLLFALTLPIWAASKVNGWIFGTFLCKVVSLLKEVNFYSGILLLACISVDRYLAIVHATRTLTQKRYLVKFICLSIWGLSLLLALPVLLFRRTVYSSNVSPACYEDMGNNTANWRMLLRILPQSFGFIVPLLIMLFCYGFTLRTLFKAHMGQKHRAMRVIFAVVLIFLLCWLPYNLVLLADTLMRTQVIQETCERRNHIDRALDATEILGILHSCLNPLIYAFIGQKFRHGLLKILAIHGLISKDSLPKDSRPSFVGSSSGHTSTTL

CXCR4 (human) = CXCR4 (human) (UniProt P61073)
CXCR4 (human), sequence (P61073 whole entry): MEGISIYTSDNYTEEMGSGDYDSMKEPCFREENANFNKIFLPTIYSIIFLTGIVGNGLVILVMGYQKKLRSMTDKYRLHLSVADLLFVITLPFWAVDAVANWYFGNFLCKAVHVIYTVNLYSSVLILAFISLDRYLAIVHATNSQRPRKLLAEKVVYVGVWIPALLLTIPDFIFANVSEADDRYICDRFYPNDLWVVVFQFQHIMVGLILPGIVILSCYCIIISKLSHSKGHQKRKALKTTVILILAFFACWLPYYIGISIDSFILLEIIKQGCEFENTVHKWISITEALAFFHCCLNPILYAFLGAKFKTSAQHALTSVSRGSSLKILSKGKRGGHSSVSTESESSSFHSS

CXCR5 (human) = CXCR5 (human) (UniProt P32302)
CXCR5 (human), sequence (P32302 whole entry): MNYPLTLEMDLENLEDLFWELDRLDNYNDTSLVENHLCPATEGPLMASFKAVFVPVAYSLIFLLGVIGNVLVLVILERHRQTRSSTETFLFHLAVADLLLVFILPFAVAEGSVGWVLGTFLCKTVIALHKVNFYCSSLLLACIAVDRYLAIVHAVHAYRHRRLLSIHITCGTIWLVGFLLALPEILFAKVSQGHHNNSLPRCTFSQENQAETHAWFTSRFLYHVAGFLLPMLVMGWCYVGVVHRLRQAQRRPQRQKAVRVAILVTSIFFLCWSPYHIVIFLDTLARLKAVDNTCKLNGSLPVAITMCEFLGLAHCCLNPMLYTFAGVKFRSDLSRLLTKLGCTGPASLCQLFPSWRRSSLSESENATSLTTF

DRD2S (human) = DRD2S (human) (UniProt P14416)
EDG1 (human) = EDG1 (human) (UniProt P21453)
EDG6 (human) = EDG6 (human) (UniProt O95977)
EDG6 (human), sequence (O95977 whole entry): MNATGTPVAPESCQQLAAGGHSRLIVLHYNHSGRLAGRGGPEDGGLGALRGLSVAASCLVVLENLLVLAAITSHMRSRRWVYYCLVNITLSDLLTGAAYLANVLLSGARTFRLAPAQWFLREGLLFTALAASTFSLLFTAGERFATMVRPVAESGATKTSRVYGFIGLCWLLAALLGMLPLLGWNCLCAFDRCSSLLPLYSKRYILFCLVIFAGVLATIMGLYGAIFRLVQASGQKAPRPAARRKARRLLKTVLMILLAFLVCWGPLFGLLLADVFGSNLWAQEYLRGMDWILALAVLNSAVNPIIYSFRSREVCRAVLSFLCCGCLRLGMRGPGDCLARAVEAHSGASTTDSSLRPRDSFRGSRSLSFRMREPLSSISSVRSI

EDG7 (human) = EDG7 (human) (UniProt Q9UBY5)
EDG7 (human), sequence (Q9UBY5 whole entry): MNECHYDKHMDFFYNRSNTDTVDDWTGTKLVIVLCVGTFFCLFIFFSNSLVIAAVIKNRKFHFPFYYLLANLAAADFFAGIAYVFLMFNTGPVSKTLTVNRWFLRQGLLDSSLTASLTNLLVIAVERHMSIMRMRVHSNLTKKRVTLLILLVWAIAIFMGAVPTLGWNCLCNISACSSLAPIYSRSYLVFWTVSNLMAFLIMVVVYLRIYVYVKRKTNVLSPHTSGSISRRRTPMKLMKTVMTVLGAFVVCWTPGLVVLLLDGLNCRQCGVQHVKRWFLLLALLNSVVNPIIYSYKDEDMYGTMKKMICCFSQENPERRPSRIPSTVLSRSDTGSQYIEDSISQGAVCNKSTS

EDNRA (human) = EDNRA (human) (UniProt P25101)
EDNRA (human), sequence (P25101 21-427): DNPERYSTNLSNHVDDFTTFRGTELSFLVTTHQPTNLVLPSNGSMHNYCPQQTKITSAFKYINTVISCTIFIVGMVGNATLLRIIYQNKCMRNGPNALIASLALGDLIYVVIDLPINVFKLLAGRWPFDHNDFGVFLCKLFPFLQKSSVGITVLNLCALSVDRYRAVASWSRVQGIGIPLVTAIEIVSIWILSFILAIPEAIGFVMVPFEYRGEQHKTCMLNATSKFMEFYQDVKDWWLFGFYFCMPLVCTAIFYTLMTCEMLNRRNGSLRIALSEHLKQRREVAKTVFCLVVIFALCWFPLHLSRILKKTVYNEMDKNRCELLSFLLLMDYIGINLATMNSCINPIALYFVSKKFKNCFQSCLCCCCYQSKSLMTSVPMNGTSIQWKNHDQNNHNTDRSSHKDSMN

EDNRB (human) = EDNRB (human) (UniProt P24530)
EDNRB (human), sequence (P24530 27-442): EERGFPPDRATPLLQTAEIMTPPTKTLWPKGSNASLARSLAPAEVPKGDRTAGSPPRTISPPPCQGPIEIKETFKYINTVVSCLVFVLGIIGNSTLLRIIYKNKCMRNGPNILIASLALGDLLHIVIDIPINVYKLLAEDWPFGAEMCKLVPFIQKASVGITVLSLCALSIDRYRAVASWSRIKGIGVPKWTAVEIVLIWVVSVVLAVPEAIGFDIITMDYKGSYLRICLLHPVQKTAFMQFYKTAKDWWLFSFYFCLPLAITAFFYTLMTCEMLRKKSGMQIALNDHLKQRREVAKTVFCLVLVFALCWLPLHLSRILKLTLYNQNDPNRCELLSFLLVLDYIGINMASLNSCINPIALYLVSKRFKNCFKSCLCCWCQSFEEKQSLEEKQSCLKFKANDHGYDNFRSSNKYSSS

F2R (human) = F2R (human) (UniProt P25116)
FSHR (human) = FSHR (human) (UniProt P23945)
GIPR (human) = GIPR (human) (UniProt P48546)
GIPR (human), sequence (P48546 22-466): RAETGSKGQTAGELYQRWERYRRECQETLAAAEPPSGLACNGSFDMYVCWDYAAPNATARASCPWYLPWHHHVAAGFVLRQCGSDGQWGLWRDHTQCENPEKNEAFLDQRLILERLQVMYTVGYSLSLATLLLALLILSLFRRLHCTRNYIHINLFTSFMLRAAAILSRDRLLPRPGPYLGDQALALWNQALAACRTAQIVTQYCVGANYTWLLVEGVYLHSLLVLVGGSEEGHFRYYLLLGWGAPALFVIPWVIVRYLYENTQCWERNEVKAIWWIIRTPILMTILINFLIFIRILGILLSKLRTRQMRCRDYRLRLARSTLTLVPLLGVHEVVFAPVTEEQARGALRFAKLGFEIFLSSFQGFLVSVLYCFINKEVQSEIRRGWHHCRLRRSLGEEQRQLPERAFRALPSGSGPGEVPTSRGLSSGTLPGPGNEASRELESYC

GLP1R (human) = GLP1R (human) (UniProt P43220)
GPR1 (human) = GPR1 (human) (UniProt P46091)
GPR109A (human) = GPR109A (human) (UniProt Q8TDS4)
GPR109B (human) = GPR109B (human) (UniProt P49019)
GPR120 (human) = GPR120 (human) (UniProt Q5NUL3)
HRH1 (human) = HRH1 (human) (UniProt P35367)
HRH2 (human) = HRH2 (human) (UniProt P25021)
HRH2 (human), sequence (P25021 whole entry): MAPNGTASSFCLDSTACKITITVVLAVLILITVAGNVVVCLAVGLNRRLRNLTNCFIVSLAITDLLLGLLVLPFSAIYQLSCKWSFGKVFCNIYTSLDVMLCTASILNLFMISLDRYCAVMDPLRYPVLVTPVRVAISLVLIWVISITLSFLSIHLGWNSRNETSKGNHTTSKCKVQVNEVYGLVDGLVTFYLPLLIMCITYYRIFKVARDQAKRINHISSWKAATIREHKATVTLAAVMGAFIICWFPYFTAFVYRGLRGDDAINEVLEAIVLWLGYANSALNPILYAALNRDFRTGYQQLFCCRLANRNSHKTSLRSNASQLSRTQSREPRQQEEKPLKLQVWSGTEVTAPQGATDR

HTR1E (human) = HTR1E (human) (UniProt P28566)
LHCGR (human) = LHCGR (human) (UniProt P22888)
MC4R (human) = MC4R (human) (UniProt P32245)
MC4R (human), sequence (P32245 whole entry): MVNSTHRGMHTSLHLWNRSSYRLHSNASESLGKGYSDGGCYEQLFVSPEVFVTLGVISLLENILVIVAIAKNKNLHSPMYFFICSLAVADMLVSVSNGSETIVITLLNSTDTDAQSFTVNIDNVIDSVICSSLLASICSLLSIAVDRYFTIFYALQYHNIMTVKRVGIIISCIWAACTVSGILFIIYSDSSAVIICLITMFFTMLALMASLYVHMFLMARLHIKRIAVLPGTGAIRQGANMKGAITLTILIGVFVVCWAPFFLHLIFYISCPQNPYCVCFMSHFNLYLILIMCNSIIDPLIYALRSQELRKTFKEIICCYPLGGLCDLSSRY

MTNR1A (human) = MTNR1A (human) (UniProt P48039)
NPBWR2 (human) = NPBWR2 (human) (UniProt P48146)
NPFFR1 (human) = NPFFR1 (human) (UniProt Q9GZQ6)
P2RY12 (human) = P2RY12 (human) (UniProt Q9H244)
P2RY2 (human) = P2RY2 (human) (UniProt P41231)
P2RY6 (human) = P2RY6 (human) (UniProt Q15077)
PRLHR (human) = PRLHR (human) (UniProt P49683)
PTGER3 (human) = PTGER3 (human) (UniProt P43115)
PTGER4 (human) = PTGER4 (human) (UniProt P35408)
PTHR1 (human) = PTHR1 (human) (UniProt Q03431)
SCTR (human) = SCTR (human) (UniProt P47872)
SCTR (human), sequence (P47872 23-440): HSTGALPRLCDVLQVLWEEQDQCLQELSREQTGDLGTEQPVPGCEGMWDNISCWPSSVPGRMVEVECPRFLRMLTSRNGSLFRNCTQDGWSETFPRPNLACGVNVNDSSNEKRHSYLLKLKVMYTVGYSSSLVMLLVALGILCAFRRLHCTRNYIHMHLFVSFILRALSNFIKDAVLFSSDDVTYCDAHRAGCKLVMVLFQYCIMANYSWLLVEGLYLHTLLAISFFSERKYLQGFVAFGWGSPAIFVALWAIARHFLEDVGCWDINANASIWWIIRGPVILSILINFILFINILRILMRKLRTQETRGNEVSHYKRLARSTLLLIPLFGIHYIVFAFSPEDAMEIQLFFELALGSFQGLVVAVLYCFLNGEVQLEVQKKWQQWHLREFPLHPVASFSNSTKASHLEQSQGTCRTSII

TACR1 (human) = TACR1 (human) (UniProt P25103)
TACR2 (human) = TACR2 (human) (UniProt P21452)
TBXA2R (human) = TBXA2R (human) (UniProt P21731)
TRHR (human) = TRHR (human) (UniProt P34981)
TSHR(L) (human) = TSHR(L) (human) (UniProt P16473)
VIPR2 (human) = VIPR2 (human) (UniProt P41587)
[1] = molecular target: human cloned somatostatin receptor 1 (human) (UniProt P30872)
[2] = molecular target: human cloned somatostatin receptor 5 (human) (UniProt P35346)

{DOTA}-[dF]RCF[dW]KTF[N(2-mercaptoethyl)Gly]-NH2 (disulfide 3-9; also: Ga complex of DOTA) [SEQ ID NO: 4]
% Activity (agonist mode, 1 µM) ((CR)L-RAMP1 (human)): -1%
% Activity (agonist mode, 1 µM) ((CR)L-RAMP2 (human)): 3%
% Activity (agonist mode, 1 µM) (ADCYAP1R1 (human)): 0%
% Activity (agonist mode, 1 µM) (AGTRL1 (human)): -1%
% Activity (agonist mode, 1 µM) (AVPR1B (human)): 1%
% Activity (agonist mode, 1 µM) (AVPR2 (human)): 0%
% Activity (agonist mode, 1 µM) (C3AR1 (human)): 0%
% Activity (agonist mode, 1 µM) (C5L2 (human)): -1%
% Activity (agonist mode, 1 µM) (CALCR (CR) (human)): 0%
% Activity (agonist mode, 1 µM) (CCR10 (human)): -2%
% Activity (agonist mode, 1 µM) (CHRM1 (human)): -1%
% Activity (agonist mode, 1 µM) (CHRM5 (human)): 5%
% Activity (agonist mode, 1 µM) (CNR1 (human)): -1%
% Activity (agonist mode, 1 µM) (CRHR1 (human)): 0%
% Activity (agonist mode, 1 µM) (CX3CR1 (human)): 0%
% Activity (agonist mode, 1 µM) (CXCR2 (human)): -1%
% Activity (agonist mode, 1 µM) (CXCR4 (human)): 3%
% Activity (agonist mode, 1 µM) (CXCR5 (human)): 0%
% Activity (agonist mode, 1 µM) (DRD2S (human)): 0%
% Activity (agonist mode, 1 µM) (EDG1 (human)): 0%
% Activity (agonist mode, 1 µM) (EDG6 (human)): 10%
% Activity (agonist mode, 1 µM) (EDG7 (human)): 0%
% Activity (agonist mode, 1 µM) (EDNRA (human)): -1%
% Activity (agonist mode, 1 µM) (EDNRB (human)): 0%
% Activity (agonist mode, 1 µM) (F2R (human)): 1%
% Activity (agonist mode, 1 µM) (FSHR (human)): 3%
% Activity (agonist mode, 1 µM) (GIPR (human)): -2%
% Activity (agonist mode, 1 µM) (GLP1R (human)): 0%
% Activity (agonist mode, 1 µM) (GPR1 (human)): 0%
% Activity (agonist mode, 1 µM) (GPR109A (human)): 0%
% Activity (agonist mode, 1 µM) (GPR109B (human)): -3%
% Activity (agonist mode, 1 µM) (GPR120 (human)): -4%
% Activity (agonist mode, 1 µM) (HRH1 (human)): -1%
% Activity (agonist mode, 1 µM) (HRH2 (human)): -4%
% Activity (agonist mode, 1 µM) (HTR1E (human)): 1%
% Activity (agonist mode, 1 µM) (LHCGR (human)): 1%
% Activity (agonist mode, 1 µM) (MC4R (human)): 0%
% Activity (agonist mode, 1 µM) (MTNR1A (human)): -7%
% Activity (agonist mode, 1 µM) (NPBWR2 (human)): 1%
% Activity (agonist mode, 1 µM) (NPFFR1 (human)): -2%
% Activity (agonist mode, 1 µM) (P2RY12 (human)): 1%
% Activity (agonist mode, 1 µM) (P2RY2 (human)): 2%
% Activity (agonist mode, 1 µM) (P2RY6 (human)): 0%
% Activity (agonist mode, 1 µM) (PRLHR (human)): 1%
% Activity (agonist mode, 1 µM) (PTGER3 (human)): 1%
% Activity (agonist mode, 1 µM) (PTGER4 (human)): -2%
% Activity (agonist mode, 1 µM) (PTHR1 (human)): 0%
% Activity (agonist mode, 1 µM) (SCTR (human)): 0%
% Activity (agonist mode, 1 µM) (TACR1 (human)): 0%
% Activity (agonist mode, 1 µM) (TACR2 (human)): -1%
% Activity (agonist mode, 1 µM) (TBXA2R (human)): 1%
% Activity (agonist mode, 1 µM) (TRHR (human)): 3%
% Activity (agonist mode, 1 µM) (TSHR(L) (human)): -1%
% Activity (agonist mode, 1 µM) (VIPR2 (human)): -1%
% Activity (agonist mode, 1 µM) [1]: 32%
% Activity (agonist mode, 1 µM) [2]: 16%
